Results taken from patent publication US20180298070A1, “PEPTIDE COMPOUND” (Takeda Pharmaceutical Company Limited, published 2018).
Starred links: 1 amine or outer side, 2 acyl side, 3 side chain; linkers in the order of their positions; H or OH if unused. Non-standard residues stand in square brackets, D forms with d. Groups on a side chain read outwards from the residue. Primed or numbered codes have the meaning given here. No end group written: not given here. *: point of attachment. C20 diacid = O=C(O)CCCCCCCCCCCCCCCCCCC(=O)*; γGlu = O=C(O)[C@H](CCC(=O)[*:2])N[*:1]; NMeY = CN[C@@H](Cc1ccc(O)cc1)C(=O)O; Stearoyl = CCCCCCCCCCCCCCCCCC(=O)*; Tridecanoyl = CCCCCCCCCCCCC(=O)*; αMeF = C[C@](N)(Cc1ccccc1)C(=O)O; Lauroyl = CCCCCCCCCCCC(=O)*; dIva = CC[C@@](C)(N)C(=O)O; Iva = CC[C@](C)(N)C(=O)O; PEG2′ = not defined here; PEG3′ = not defined here; Dda = not defined here; Hexanoyl = CCCCCC(=O)*; Aib = CC(C)(N)C(=O)O

Legend:
[1] = molecular target: T1, human GIPR (human), P48546
T1 chain: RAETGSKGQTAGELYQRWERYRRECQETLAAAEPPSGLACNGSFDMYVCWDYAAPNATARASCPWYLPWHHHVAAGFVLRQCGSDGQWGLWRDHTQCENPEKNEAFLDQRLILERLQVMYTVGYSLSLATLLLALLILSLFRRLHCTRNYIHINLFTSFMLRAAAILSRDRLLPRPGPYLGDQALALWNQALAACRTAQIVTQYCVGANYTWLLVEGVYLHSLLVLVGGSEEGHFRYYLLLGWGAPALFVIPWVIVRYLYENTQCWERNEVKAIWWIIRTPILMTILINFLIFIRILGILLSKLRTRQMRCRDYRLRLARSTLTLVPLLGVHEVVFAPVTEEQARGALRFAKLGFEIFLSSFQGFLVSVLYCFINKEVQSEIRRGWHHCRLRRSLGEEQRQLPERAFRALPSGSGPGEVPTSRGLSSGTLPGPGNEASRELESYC

[2] = molecular target: T2, human GLP-1R (human), P43220
T2 chain: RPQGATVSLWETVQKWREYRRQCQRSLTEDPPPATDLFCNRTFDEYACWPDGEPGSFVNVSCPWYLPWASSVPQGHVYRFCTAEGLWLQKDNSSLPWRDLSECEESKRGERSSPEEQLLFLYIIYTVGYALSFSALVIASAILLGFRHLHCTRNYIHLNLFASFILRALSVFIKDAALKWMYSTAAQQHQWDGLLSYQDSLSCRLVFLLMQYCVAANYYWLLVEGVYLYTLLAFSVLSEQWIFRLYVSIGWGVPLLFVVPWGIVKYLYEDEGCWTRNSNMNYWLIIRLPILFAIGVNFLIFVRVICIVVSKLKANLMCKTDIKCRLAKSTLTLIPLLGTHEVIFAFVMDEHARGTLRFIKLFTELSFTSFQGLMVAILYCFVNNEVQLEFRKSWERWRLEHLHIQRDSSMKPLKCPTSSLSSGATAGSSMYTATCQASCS

[3] = molecular target: T1, human GIPR (human), P48546; test: [125I]GIP displacement, hGIPR VLP

Row | Binder | Agonist activity (EC50, M) [1] [M] | Agonist activity (EC50, M) [2] [M] | IC50 [3] [nM]
1 | Y[Aib]EGTFISDYSK([PEG2′-Lauroyl])ALDR[Aib]HQ[Aib]NFVNW[Iva]LAQRPSSGAPPPS (not fully specified (C-terminus); ends and bridges not checked) [Compound 215] | 2.8e-12 | 1.5e-07 | 2.8
2 | Y[Aib]EGTFISDYSK([PEG3′-PEG3′-γGlu-C20 diacid])ALDRIHQQDFVNWLLAQRPSSGAPPPS (not fully specified (C-terminus); ends and bridges not checked) [Compound 238] | 8.3e-11 | > 1e-06 | 43
3 | Y[Aib]EGTFISDYSK([PEG2′-Lauroyl])ALDRIHQQDFVNWLLAQRPSSGAPPPSR (ends and bridges not checked) [Compound 180] | 1.9e-12 | > 1e-06 | 1.2
4 | Y[Aib]EGTFISDYSK([PEG(2)-Lauroyl])ALDRIHQQSFVNW[Iva]LAQRPSSGAPPPS (not fully specified (C-terminus); ends and bridges not checked) [Compound 222] | 3.7e-12 | > 1e-06 | 2.9
5 | Y[Aib]EGTFISDYSK([PEG2′-Lauroyl])ALDRIAQQSFVNW[Iva]LAQRPSSGAPPPS (not fully specified (C-terminus); ends and bridges not checked) [Compound 220] | 5.3e-12 | 9.9e-08 | 2.9
6 | Y[Aib]EGTFISDYSIALDRK([PEG(2)-dodec])HQQDFVNWLLAQRPSSGAPPPS (not fully specified (C-terminus); ends and bridges not checked) [Compound 232] | 3.2e-12 | > 1e-06 | 2.1
7 | Y[Aib]EGTFISDYSK([PEG(2)-Lauroyl])ALDRIHQQS[αMeF]VNW[Iva]LAQRPSSGAPPPS (not fully specified (C-terminus); ends and bridges not checked) [Compound 223] | 5.1e-12 | > 1e-06 | 3
8 | [NMeY][Aib]EGTFISDYSIALDRIAQ[Aib]NFVNW[Iva]LAQRPSSGAPPPSR (not fully specified (C-terminus); ends and bridges not checked) [Compound 68] | 1.7e-12 | 3.5e-07 | 2.4
9 | Y[Aib]EGTFISDYSIALDRK([PEG3′-PEG3′-γGlu-C20 diacid])HQQDFVNWLLAQRPSSGAPPPS (not fully specified (C-terminus); ends and bridges not checked) [Compound 237] | 1.6e-10 | > 1e-06 | 110
10 | Y[Aib]EGTFISDYSK([PEG(2)-Lauroyl])ALDRIAQ[Aib]NFVNWLLAQRPSSGAPPPS (ends and bridges not checked) [Compound 204] | 8.1e-12 | 9.5e-09 | 2.6
11 | Y[Aib]EGTFISDYSK([PEG(2)-Lauroyl])ALDRIAQQSFVNWLLAQRPSSGAPPPS (ends and bridges not checked) [Compound 203] | 4.3e-12 | > 1e-06 | 2.1
12 | Y[Aib]EGTFISDYSK([PEG2′-Hexanoyl])ALDRIHQQDFVNWLLAQRPSSGAPPPSR (ends and bridges not checked) [Compound 179] | 3e-12 | > 1e-06 | 2.1
13 | Y[Aib]EGTFISDYSK([PEG(2)-Lauroyl])ALDRIAQQDFVN[αMeF]LLAQRPSSGAPPPSR (ends and bridges not checked) [Compound 194] | 3.5e-12 | 2.5e-08 | 2.3
14 | Y[Aib]EGTFISDYSK([PEG(2)-Lauroyl])ALDR[Aib]AQQDFVNWLLAQRPSSGAPPPS (ends and bridges not checked) [Compound 205] | 3.4e-12 | 2.9e-08 | 1.6
15 | Y[Aib]EGTFISDYSIALDRK([PEG(2)-C20 diacid])HQQDFVNWLLAQRPSSGAPPPS (not fully specified (C-terminus); ends and bridges not checked) [Compound 234] | 1.5e-10 | > 1e-06 | 82
16 | Y[Aib]EGTFISDYSK([PEG2′-Lauroyl])ALDRIAQQS[αMeF]VNW[Iva]LAQRPSSGAPPPS (not fully specified (C-terminus); ends and bridges not checked) [Compound 221] | 7.1e-12 | > 1e-06 | 3
17 | Y[Aib]EGTFISDYSIALDRK([PEG(2)-Pal])HQ[Aib]NFVNW[Iva]LAQRPSSGAPPPS (not fully specified (C-terminus); ends and bridges not checked) [Compound 240] | 3e-12 | 5.8e-09 | 2.4
18 | Y[Aib]EGTFISDYSK([PEG2′-Tridecanoyl])ALDRIAQQDFVNWLLAQRPSSGAPPPSR (ends and bridges not checked) [Compound 185] | 7e-12 | 2.6e-08 | 19
19 | Y[Aib]EGTFISDYSK([PEG(2)-Lauroyl])ALDRIAQQDFVNWLLAQRPSSGAPPPS (ends and bridges not checked) [Compound 191] | 4.1e-12 | 5e-08 | 2.7
20 | Y[Aib]EGTFISDYSK([PEG(2)-Lauroyl])ALDRIAQ[Aib]NFVNWLLAQRPSSGAPPPSR (ends and bridges not checked) [Compound 197] | 5.6e-12 | 1.1e-08 | 2.6
21 | Y[Aib]EGTFISDYSK([PEG(2)-Lauroyl])ALDRIAQQD[αMeF]VNWLLAQRPSSGAPPPSR (ends and bridges not checked) [Compound 195] | 4.8e-12 | 1e-07 | 2.3
22 | Y[Aib]EGTFISDYSK([PEG(2)-Lauroyl])ALDRIAQQSFVNWLLAQRPSSGAPPPSR (ends and bridges not checked) [Compound 196] | 6.3e-12 | 4.4e-08 | 2.4
23 | Y[Aib]EGTFISDYSK([PEG(2)-Lauroyl])[dIva]LDRIAQQDFVNWLLAQRPSSGAPPPSR (ends and bridges not checked) [Compound 199] | 3.4e-11 | > 1e-06 | 2.4
24 | Y[Aib]EGTFISDYSK([PEG2′-Dda])ALDRIAQQDFVNWLLAQRPSSGAPPPSR (ends and bridges not checked) [Compound 188] | 3e-12 | 2e-07 | 2.7
25 | Y[Aib]EGTFISDYSK([PEG2′-Stearoyl])ALDRIHQQDFVNWLLAQRPSSGAPPPSR (ends and bridges not checked) [Compound 181] | 9.2e-12 | > 1e-06 | 2.6
